Test [1] addresses T1, human recombinant PGRP-S (also called PGLYRP1) (human, UniProt O75594 22-196).
T1 construct: also called PRGP-S; human PGRP-SA ortholog
T1 sequence (looked up): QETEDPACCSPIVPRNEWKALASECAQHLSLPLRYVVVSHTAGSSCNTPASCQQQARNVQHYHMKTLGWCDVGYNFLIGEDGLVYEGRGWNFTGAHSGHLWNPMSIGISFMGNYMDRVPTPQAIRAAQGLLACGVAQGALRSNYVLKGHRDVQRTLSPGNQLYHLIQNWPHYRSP
Kind of test: ELISA; […]) or 5% BSA ([…]. The following applies: both partners purified.

The target of test [2] is T2, Drosophila melanogaster peptidoglycan-recognition protein-SA (PGRP-SA), T7-tagged (D. melanogaster, UniProt Q9VYX7 27-203).
T2 construct: also called PRGP-SA
T2 sequence (looked up): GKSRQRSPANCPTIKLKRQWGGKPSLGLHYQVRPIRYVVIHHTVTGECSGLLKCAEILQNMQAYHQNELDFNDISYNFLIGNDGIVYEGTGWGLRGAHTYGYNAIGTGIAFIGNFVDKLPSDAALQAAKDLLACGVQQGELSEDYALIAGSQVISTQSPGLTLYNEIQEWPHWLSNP
Kind of test: ELISA; […]) or 5% BSA ([…]. The following applies: both partners purified. For orientation: ELISA stands for enzyme-linked immunosorbent assay.

B1: PA20, 20 kDa subunit of anthrax toxin Protective Antigen (PA83) (domain or fragment)
chain: EVKQENRLLNESESSSQGLLGYYFSDLNFQAPMVVTSSTTGDLSIPSSELENIPSENQYFQSAIWSGFIKVKKSDEYTFATSADNHVTMWVDDQEVINKASNSNKIRLEKGRLYQIKIQYQRENPTEKGLDFKLYWTDSQNKKEVISSDNLQLPELKQKSSNS
notes: also called pelB-PA20-6His
Turning to B1, the binding result in test [1] and in test [2] was “binds” in each case.

Values taken from paper PMC7458312, “Anthrax toxin component, Protective Antigen, protects insects from bacterial infections” (PLoS Pathogens, 2020).
